Data published in patent US20250262210A1 (TRUSTEES OF COLUMBIA UNIVERSITY IN THE CITY OF NEW YORK, published 2025).

Experiments:
Test in all cases: IP/MS, LZTR1 R810W-FLAG, U87
[1] = biological target: T1, RANBP6 (human, UniProt O60518 2-1105)
T1 sequence (looked up): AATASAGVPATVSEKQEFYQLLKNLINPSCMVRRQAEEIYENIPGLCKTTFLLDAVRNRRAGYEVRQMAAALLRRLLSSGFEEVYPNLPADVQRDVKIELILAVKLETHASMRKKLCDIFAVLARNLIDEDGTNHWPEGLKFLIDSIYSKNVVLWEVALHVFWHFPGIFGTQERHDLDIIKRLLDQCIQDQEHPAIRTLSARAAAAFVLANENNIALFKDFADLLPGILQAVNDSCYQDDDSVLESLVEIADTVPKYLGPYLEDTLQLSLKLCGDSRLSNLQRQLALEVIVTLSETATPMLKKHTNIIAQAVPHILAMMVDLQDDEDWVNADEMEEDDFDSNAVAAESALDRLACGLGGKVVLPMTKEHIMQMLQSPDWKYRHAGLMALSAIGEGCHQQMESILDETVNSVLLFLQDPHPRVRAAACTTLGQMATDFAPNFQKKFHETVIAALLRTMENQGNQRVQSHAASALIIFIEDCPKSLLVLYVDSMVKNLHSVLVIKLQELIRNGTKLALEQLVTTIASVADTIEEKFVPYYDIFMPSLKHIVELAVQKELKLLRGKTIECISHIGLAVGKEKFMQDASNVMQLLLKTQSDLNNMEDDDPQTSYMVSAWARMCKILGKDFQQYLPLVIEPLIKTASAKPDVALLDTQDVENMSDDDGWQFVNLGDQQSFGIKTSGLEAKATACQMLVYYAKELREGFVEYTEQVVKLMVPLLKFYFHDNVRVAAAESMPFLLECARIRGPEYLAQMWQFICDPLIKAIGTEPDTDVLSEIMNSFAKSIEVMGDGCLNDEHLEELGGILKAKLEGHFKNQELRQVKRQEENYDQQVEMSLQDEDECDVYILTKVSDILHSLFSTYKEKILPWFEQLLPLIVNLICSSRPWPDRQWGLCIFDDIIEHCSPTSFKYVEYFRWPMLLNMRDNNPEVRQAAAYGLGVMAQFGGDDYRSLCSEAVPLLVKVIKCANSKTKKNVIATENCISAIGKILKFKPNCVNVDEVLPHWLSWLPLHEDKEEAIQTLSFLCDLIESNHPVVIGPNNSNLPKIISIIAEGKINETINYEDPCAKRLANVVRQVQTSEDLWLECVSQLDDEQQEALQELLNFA
In short: (§1)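 Gel slices were reduced with 5 mM DTT, alkylated with 11 mM IAA and digested overnight at 37° C. with trypsin. Peptides were analysed on an Orbitrap Fusion Tribrid by LC-MS/MS.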

[2] = biological target: URB1 (human, UniProt O60287 1-2271)
URB1, sequence (O60287 whole entry): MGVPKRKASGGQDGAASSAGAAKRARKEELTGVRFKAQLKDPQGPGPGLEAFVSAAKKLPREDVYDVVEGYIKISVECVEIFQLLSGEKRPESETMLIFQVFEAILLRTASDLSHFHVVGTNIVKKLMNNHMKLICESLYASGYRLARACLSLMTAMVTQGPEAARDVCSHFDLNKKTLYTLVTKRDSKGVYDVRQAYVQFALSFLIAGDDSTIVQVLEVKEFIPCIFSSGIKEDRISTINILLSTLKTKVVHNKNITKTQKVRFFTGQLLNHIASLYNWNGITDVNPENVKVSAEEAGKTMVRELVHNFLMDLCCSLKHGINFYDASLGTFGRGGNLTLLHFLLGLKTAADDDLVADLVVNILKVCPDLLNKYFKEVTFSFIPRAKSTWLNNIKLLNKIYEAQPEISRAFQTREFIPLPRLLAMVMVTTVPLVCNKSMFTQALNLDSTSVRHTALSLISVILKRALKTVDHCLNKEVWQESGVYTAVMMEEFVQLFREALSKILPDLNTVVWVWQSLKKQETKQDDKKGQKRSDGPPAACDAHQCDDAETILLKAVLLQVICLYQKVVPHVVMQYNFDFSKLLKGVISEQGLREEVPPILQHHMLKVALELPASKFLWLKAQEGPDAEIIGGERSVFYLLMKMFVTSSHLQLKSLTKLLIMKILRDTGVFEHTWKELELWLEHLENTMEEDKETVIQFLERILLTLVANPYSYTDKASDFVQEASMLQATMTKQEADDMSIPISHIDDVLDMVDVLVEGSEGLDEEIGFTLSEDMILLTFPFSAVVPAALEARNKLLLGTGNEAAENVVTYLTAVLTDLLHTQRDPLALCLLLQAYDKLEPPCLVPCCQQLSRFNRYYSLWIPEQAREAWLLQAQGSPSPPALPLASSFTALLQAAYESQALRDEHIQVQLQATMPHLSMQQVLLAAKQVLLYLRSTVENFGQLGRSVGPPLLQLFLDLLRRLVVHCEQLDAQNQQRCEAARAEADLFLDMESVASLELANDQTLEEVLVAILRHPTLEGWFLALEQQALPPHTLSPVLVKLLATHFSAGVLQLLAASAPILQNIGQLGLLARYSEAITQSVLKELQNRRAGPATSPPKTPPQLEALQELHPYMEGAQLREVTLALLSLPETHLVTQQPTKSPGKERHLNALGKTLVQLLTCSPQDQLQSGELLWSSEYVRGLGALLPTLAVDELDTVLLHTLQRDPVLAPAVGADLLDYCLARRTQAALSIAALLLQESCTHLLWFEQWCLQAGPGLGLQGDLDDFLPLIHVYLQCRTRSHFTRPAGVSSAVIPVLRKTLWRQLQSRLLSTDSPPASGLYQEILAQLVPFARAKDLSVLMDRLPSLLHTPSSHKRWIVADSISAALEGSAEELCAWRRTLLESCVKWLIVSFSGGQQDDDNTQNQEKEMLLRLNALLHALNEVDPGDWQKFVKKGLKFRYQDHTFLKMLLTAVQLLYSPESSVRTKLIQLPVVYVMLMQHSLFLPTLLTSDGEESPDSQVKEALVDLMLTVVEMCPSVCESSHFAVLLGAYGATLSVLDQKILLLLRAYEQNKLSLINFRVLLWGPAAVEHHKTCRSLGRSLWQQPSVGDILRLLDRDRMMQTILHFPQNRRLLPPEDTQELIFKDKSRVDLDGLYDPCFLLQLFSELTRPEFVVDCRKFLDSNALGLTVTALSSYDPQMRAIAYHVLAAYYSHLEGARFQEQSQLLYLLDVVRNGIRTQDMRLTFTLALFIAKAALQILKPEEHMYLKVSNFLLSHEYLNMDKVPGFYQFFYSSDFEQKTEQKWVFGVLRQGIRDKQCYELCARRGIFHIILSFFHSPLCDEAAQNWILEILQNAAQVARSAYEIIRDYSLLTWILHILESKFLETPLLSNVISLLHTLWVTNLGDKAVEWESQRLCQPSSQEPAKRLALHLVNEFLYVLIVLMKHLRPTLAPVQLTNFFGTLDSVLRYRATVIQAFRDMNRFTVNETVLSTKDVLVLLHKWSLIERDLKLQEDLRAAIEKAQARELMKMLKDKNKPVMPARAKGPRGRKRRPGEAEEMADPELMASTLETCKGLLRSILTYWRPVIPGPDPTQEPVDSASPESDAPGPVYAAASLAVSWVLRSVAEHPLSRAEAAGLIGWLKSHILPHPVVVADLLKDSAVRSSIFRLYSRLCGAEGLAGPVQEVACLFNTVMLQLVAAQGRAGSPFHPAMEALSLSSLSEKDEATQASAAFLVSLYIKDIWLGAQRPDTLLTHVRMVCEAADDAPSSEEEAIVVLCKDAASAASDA
In short: as §1

[3] = biological target: MTOR (human, UniProt P42345 1-2549)
In short: as §1

Measured: binding result

B1: LZTR1 R810W-FLAG (other, human, UniProt Q8N653 1-840, looked up)
chain: MAGPGSTGGQIGAAALAGGARSKVAPSVDFDHSCSDSVEYLTLNFGPFETVHRWRRLPPCDEFVGARRSKHTVVAYKDAIYVFGGDNGKTMLNDLLRFDVKDCSWCRAFTTGTPPAPRYHHSAVVYGSSMFVFGGYTGDIYSNSNLKNKNDLFEYKFATGQWTEWKIEGRLPVARSAHGATVYSDKLWIFAGYDGNARLNDMWTIGLQDRELTCWEEVAQSGEIPPSCCNFPVAVCRDKMFVFSGQSGAKITNNLFQFEFKDKTWTRIPTEHLLRGSPPPPQRRYGHTMVAFDRHLYVFGGAADNTLPNELHCYDVDFQTWEVVQPSSDSEVGGAEVPERACASEEVPTLTYEERVGFKKSRDVFGLDFGTTSAKQPTQPASELPSGRLFHAAAVISDAMYIFGGTVDNNIRSGEMYRFQFSCYPKCTLHEDYGRLWESRQFCDVEFVLGEKEECVQGHVAIVTARSRWLRRKITQARERLAQKLEQEAAPVPREAPGVAAGGARPPLLHVAIREAEARPFEVLMQFLYTDKIKYPRKGHVEDVLLIMDVYKLALSFQLCRLEQLCRQYIEASVDLQNVLVVCESAARLQLSQLKEHCLNFVVKESHFNQVIMMKEFERLSSPLIVEIVRRKQQPPPRTPLDQPVDIGTSLIQDMKAYLEGAGAEFCDITLLLDGHPRPAHKAILAARSSYFEAMFRSFMPEDGQVNISIGEMVPSRQAFESMLRYIYYGEVNMPPEDSLYLFAAPYYYGFYNNRLQAYCKQNLEMNVTVQNVLQILEAADKTQALDMKRHCLHIIVHQFTKVSKLPTLWSLSQQLLLDIIDSLASHISDKQCAELGADI
notes: Stably expressed in U87 cells by lentivirus; also called LZTR1-FLAG-R810W; LZTR1 RW; not shown: FLAG tag
binds: all assays above
